Reference: paper PMC7133447

Experiments:
[1] = molecular target: transferrin receptor (TfR) on bEnd.3 cells (mouse) (UniProt Q62351); assay: flow cytometry (bEnd.3 cells); settings: Live-cell flow cytometry, 5e5 cells, 0-400 nM aptamer, PBS with 10% FCS, 0.1 mg/mL tRNA, 0.1 mg/mL BSA, 60 min, 37 C, aptamer folded in PBS with 5 mM MgCl2
[2] = molecular target: T1, epithelial cell adhesion molecule (EpCAM) on MDA-MB-231 cells (human) (UniProt P16422); assay: flow cytometry (MDA-MB-231 cells); settings: Live-cell flow cytometry, 5e5 cells, 0-400 nM aptamer, PBS with 10% FCS, 0.1 mg/mL tRNA, 0.1 mg/mL BSA, 60 min, 37 C, aptamer folded in PBS with 5 mM MgCl2
T1 sequence: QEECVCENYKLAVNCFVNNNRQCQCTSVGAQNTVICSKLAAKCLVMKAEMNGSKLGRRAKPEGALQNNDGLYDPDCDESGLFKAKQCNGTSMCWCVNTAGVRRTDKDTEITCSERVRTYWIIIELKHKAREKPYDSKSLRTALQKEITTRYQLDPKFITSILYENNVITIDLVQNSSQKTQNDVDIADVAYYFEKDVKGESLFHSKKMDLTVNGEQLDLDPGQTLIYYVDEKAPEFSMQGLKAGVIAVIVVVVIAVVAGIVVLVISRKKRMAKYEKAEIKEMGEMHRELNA

[3] = molecular target: transferrin receptor (TfR) / EpCAM on 4T1 cells (mouse) (UniProt Q62351); assay: flow cytometry (4T1 cells); settings: Live-cell flow cytometry, 5e5 cells, 0-400 nM aptamer, PBS with 10% FCS, 0.1 mg/mL tRNA, 0.1 mg/mL BSA, 60 min, 37 C; aptamer folded in PBS with 5 mM MgCl2
[4] = doxorubicin intercalated (non-covalent, about 2-3 per aptamer)

transferrin receptor (TfR) on bEnd.3 cells (mouse), sequence (Q62351 whole entry): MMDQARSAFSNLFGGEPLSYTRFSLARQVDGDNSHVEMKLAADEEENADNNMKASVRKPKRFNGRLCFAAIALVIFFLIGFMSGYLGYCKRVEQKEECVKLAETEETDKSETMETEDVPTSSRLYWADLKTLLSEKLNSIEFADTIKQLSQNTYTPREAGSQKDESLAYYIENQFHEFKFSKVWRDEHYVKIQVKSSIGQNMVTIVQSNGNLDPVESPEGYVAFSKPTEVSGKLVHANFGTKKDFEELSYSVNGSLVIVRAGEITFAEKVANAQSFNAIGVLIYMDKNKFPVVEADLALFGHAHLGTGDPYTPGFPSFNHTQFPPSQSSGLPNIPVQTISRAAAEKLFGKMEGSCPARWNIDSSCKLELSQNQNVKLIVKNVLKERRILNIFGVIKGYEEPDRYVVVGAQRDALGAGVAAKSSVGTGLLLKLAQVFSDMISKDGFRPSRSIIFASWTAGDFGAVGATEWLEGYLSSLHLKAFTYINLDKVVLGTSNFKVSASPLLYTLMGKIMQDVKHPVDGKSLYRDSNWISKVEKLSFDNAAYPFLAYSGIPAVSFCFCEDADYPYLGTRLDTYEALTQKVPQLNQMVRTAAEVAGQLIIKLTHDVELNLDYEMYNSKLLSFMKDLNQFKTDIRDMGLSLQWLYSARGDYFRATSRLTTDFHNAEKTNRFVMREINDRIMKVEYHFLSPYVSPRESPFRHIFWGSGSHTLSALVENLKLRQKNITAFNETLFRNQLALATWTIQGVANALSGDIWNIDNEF
transferrin receptor (TfR) / EpCAM on 4T1 cells (mouse), sequence (Q62351 whole entry): as above

| Sequence | Kd [1, 4] [nM] | Kd [2, 4] [nM] | Kd ([1]; cited from earlier work) [nM] | Kd ([2]; cited from earlier work) [nM] | Kd [3] [nM] |
| --- | --- | --- | --- | --- | --- |
| GCGCGGTACCGCGCTAACGGAGGTTGCGTCCGT [TEPP-DOX] | 119 | 536 | – | – | – |
| GCGCGTGCACGCGCTAACGGATTCCTTTTCCGT [TENN-DOX] | 865 | > 10000 | – | – | – |
| GCGCGTGCACGCGCTAACGGATTCCTTTTCCGT [TENN] | – | – | > 10000 | > 10000 | – |
| GCGCGGTACCGCGCTAACGGAGGTTGCGTCCGT [TEPP] | – | – | 110 | 85.6 | 27.6 |
